# The supplement of paper PMC9170038
# Tested on: MS2 coat protein
# Experiment: apparent KD of MS2 coat protein; designed switch direction (-1 OFF switch, 1 ON switch): -1; higher = weaker reporter binding
# Procedure, shortened: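 Normalised cluster fluorescence was curve-fitted, and each design's median over clusters is its apparent KD. Before this, SNAP-549-labelled MS2 coat protein was titrated from 0.7 or 1.5 nM, doubling to 3 µM, over RNA switches transcribed on Illumina chips by stalled E. coli RNA polymerase. Titrations had no input, 200 uM small-molecule ligand, or an oligonucleotide input, and steps lasted 0.8–1.5 h (lowest) to 10–20 min (highest).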
# [1] = input ligand: microRNA oligo, concentration not stated
# [2] = Eterna round: R95, input ligand: microRNA oligo, concentration not stated
# [3] = Eterna round: R95, input ligand: FMN 200 uM
# [4] = Eterna round: R95, input ligand: none
Sequence,apparent KD of MS2 coat protein [2] [nM],apparent KD of MS2 coat protein [3] [nM],apparent KD of MS2 coat protein [4] [nM],also measured
"ACAUGAGGAUCACCCAUGUGACCACAAUGGCUGAUGUAACAACAGGAUAUUCGUGAAUAUCUAACGAAGAAGGGUUAUGACUGG [Deportation 63 - Jieux - Exclusion NG 3] (Eterna round: R96, puzzle: Exclusion NG 3)",–,–,–,apparent KD of MS2 coat protein [1]: 51.4 nM
UCCUAACAUGAGGAUCACCCAUGUCAGGAUAUGAUACUAUGUACUUCGGUACAUAGUAUCAGAAGGGACAUCCU [Ex1-3: 9] (puzzle: Exclusion 1),14.7,–,–,–
"AGUAGUAGUAUCCGAUCCUACAUGAGGAUCACCCAUGUAGCUAGACGUGCACGCGAUGCUCGUCAGACUACCGGAUG [salish99_TOv1_r3_041] (puzzle: Sensor v3, turn-off variant 1)",23,23.7,29.6,–
"AACCAGCGAGGAUAUCGUUCGGAUAACAUGAGGAUCACCCAUGUGAGUCGUGUUUACGAACGAGAAGGCGCGACUC [Cequus] (Eterna round: R97, puzzle: Exclusion 5)",–,–,–,apparent KD of MS2 coat protein (input ligand: FMN 200 uM): 218 nM; apparent KD of MS2 coat protein (input ligand: none): 798 nM
GUAGAGUAAGGAUAUGUUGAAUAGGAUAGAAUGGUUAGAAAGCAGAAGGUACAUGAGGAUCACCCAUGUAAUGU [Excluse me!!!! 14 - Jieux - Exclusion 4] (puzzle: Exclusion 4),21.4,–,–,–
GUCGUGUAAGGAUAUGCAUCGAGGUAGCGAAUGUUGCAGGUGUAGAAGGUACAUGAGGAUCACCCAUGUAAUGU [Exclusion 4 - An extended Mod of Jieux] (puzzle: Exclusion 4),20.2,–,–,–
AAUAAUAAGGAGGAUAUCGUAUCGGAAACGAUACGAGAAGGCCUAACAUGAGGAUCACCCAUGUUCCUUAAUAA [Fiskers Ex 6 - 4] (puzzle: Exclusion 6),22,33.3,18.2,–
GAAGAGACAGGAUAUACAUGAGGAUCACCCAUGUGAGGAGGUUGGAAGCGGAGAAGGUGUAGAAGGGUCAAAGA [JR_Exclu3_Sub023] (puzzle: Exclusion 3),37.1,75.1,80.7,–
GUUAAACAUGAGGAUCACCCAUGUAAGGAUAUGCUGCGGUCGAGAUGAAGUGACUGCAGCAGAAGGUACAAAUG [Mat - Mod of JL D60] (puzzle: Exclusion 1),127,162,133,–
GAAAAGGUAGGAUAUACAAAAAAAAAGGGUAGAAAAAAAACACAUGAGGAUCACCCAUGUAGAAGGACCAAAAG [salish99_ex2_r3_057] (puzzle: Exclusion 2),37,83.7,25.9,–
CUUAGACAUGAGGAUCACCCAUGUGAGGAUAUGAUGCGAUCGUCGAAAGACGAUAGCAUCAGAAGGCACAUAUG [Fiskers Ex 1 - 6] (puzzle: Exclusion 1),132,–,–,–
"ACCUCACAUGAGGAUCACCCAUGUCAGGAUAUCUAAUAUAGUAGCGUUCCCGACGCUAAGAGAAGGGACAUUAA [EX1 #32] (Eterna round: R97, puzzle: Exclusion 1)",–,–,–,apparent KD of MS2 coat protein (input ligand: FMN 200 uM): 23 nM; apparent KD of MS2 coat protein (input ligand: none): 13.9 nM
CUGGUGUGAGGAUAUCAGGACACGCCCGAGGGCGUGUCAAAUGAGAAGGCACAUGAGGAUCACCCAUGUGGGAC [Atisrage] (puzzle: Exclusion 4),39.8,–,–,–
"CUGCUGGAGCUUUGCUUUAGUCGUACAUGAGGAUCACCCAUGUAGGAUAUGGUAGGCUUUGCUUACUAGAAGGAUAGAGUGGUC [salish99_ExNG3_r04_606] (Eterna round: R96, puzzle: Exclusion NG 3)",–,–,–,apparent KD of MS2 coat protein (input ligand: FMN 200 uM): 226 nM; apparent KD of MS2 coat protein [1]: 66.6 nM; apparent KD of MS2 coat protein (input ligand: none): 62 nM
"GUGUAACUACACGGGCUCAACAUGAGGAUCACCCAUGUCAUACACGCAAGCUUUUUGCUUGUCUUAUCAGUCCGUGA [Rereerdiin] (puzzle: Sensor v3, turn-off variant 1)",13.4,13,11.1,–
